Data on three compounds can be found in PMC10552758, “Identification and characterization of a novel β-lactamase gene, blaAMZ–1, from Achromobacter mucicolens” (Frontiers in Microbiology, 2023).

Data set [1] deals with T1, AMZ-1 (Achromobacter mucicolens, UniProt Z9OND0BR39).
T1 construct: ORF without signal peptide (cleavage 26/27) in pColdI, E. coli BL21(DE3); His-tag removed with enterokinase
Put plainly: nitrocefin hydrolysis, UV-VIS spectrophotometry. The class given is biochemical.

Data set [2] has as its system CC(=O)OCC1=C(C(=O)O)N2C(=O)[C@@H](NC(=O)Cc3cccs3)[C@H]2SC1. Put plainly: UV-VIS hydrolysis, initial rates, Michaelis-Menten fit. The format is biochemical, Achromobacter mucicolens. The note with it: 10 mM phosphate pH 7.0, 37°C. From the text:
(§1) UV-VIS hydrolysis, initial rates, Michaelis-Menten fit on AMZ-1

Data set [3] deals with CC1(C)S[C@@H]2[C@H](NC(=O)Cc3ccccc3)C(=O)N2[C@H]1C(=O)O. The data set is described as above. The class given is biochemical, Achromobacter mucicolens. The note with it: 10 mM phosphate pH 7.0, 37°C.
Source text: as §1

In data set [4] the test system is CC1(C)S[C@@H]2[C@H](NC(=O)[C@H](N)c3ccc(O)cc3)C(=O)N2[C@H]1C(=O)O. The data set is described as above. The format is biochemical, Achromobacter mucicolens. Conditions: 10 mM phosphate pH 7.0, 37°C.
Source text: as §1

Data set [5] relates to CO[C@@]1(NC(=O)Cc2cccs2)C(=O)N2C(C(=O)O)=C(COC(N)=O)CS[C@@H]21. Described as above. The format is biochemical, Achromobacter mucicolens. Conditions: 10 mM phosphate pH 7.0, 37°C.
Source text: as §1

On to `NC(=O)[C@@H]1CC[C@@H]2CN1C(=O)N2OS(=O)(=O)O` [avibactam], for which, in data set [1], the IC50 (commonly the midpoint of a concentration-inhibition curve) is 0.00082 µM.

With AMZ-1 (Achromobacter mucicolens), the Km (in general, the concentration of substrate that gives half-maximal velocity) in data set [2] amounted to 564.23 ± 56.35 µM; in data set [3], 108.84 ± 8.12 µM; in data set [4], 14.65 ± 1.274 µM; in data set [5], 18.16 ± 3.88 µM. For the same compound, the kcat (in general, the maximal rate divided by the concentration of active sites) in data set [2] came out at 5.88 ± 0.39 s⁻¹; in data set [3], 3.93 ± 0.13 s⁻¹; in data set [4], 0.0947 ± 0.005 s⁻¹; in data set [5], 0.0805 ± 0.0137 s⁻¹. The catalytic efficiency (kcat/Km) (in general, the second-order rate constant that governs catalysis at low substrate concentration) was 10400 ± 40 M⁻¹ s⁻¹ in data set [2], 36300 ± 150 M⁻¹ s⁻¹ in data set [3], 6780 ± 1650 M⁻¹ s⁻¹ in data set [4] and 4540 ± 660 M⁻¹ s⁻¹ in data set [5].

`C[C@]1(Cn2ccnn2)[C@H](C(=O)O)N2C(=O)C[C@H]2S1(=O)=O` [tazobactam] displayed an IC50 in data set [1] of 1090 µM.
